The results in this text go back to the supplement of paper PMC10126150.

± gives the standard deviation of the averaged measurements.
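Further: ATP exposure 15 min at 22 °C before imaging.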

For this data set, the system named is ATP. The data set can be described thus: switch fluorescence ratio, 500 uM ATP over buffer (Cy3 cluster intensity, sum of 5 cycles each) (fold (ratio)); higher = stronger signal-on switching upon ATP binding; sequences stand for … in TCGTCGGCAGCGTCAGATGTGTATAAGAGACAGTTTTTTTTTTTTTTTTTTTTTTTTT…TC. The note with it: aptamer strand: ATP DNA aptamer (quencher-CACCTGGGGGAGTATTGCGGAGGAAGG + anchor), 100 nM annealed; ATP concentration: 500 uM. In short, it runs like this:
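For every switch-domain sequence, the fluorescence ratio is the mean of per-cluster values, each being summed target-cycle Cy3 intensity over summed buffer-cycle Cy3 intensity. Clusters outside 100-1000 RFU were excluded. On a modified Illumina MiSeq flow-cell, the Cy3-labelled switching-strand clusters were annealed to 100 nM quencher-labelled ATP aptamer, imaged in selection buffer and then after 15 min with 500 uM ATP at 22 °C. Five such cycles were run, with NaOH stripping and re-annealing between them.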
For CGATTTCAGA, the switch fluorescence ratio was 1.009 ± 0.01. For TCCCGGGGGG the value was 1.14 ± 0.26; for CTGGATGGAG, 0.9934 ± 0.0047. To CATCATCTTG belongs 1 ± 0.062; to TTAGAACATC, 1.009 ± 0.0053; to GACGGTTGCG, 0.977 ± 0.054.

AGTAAGAGAA: the switch fluorescence ratio worked out at 0.995 ± 0.023. For GGTTTGAGTA the value was 1.02 ± 0.074; for TTTGCAAGGA, 1.02 ± 0.045.

As to TACAGGATGG, the switch fluorescence ratio is 0.9694 ± 0.0057.

With CAATTAGCAT, the switch fluorescence ratio is 1.03 ± 0.017. For TAAGACGTCC the value was 1.016 ± 0.0088; for CAGGGGGACG, 0.923 ± 0.063. To CCGAGAGGGC belongs 1.15 ± 0.092; to CCTTATTGAA, 0.979 ± 0.021; to CCGTGGGGAT, 1.24 ± 0.26. On to TATAGCGGGG, for which the switch fluorescence ratio is 1.02 ± 0.015. GCTGTCGCTT: the switch fluorescence ratio came to 1.03 ± 0.027.

For GCACTGAAGG, the switch fluorescence ratio amounted to 1.0196 ± 0.00041. Turning to GTTAGGGTAT, the switch fluorescence ratio is 0.9975 ± 0.004. To CCGAGGAAGC belongs 1.34 ± 0.14. For TGCTTCTCGA, the switch fluorescence ratio was 0.991 ± 0.031. In the case of TAATCTGGCT, the switch fluorescence ratio stood at 0.993 ± 0.011. To GGACAAGCGT belongs 0.987 ± 0.021; to AGTTTACGAA, 1.01 ± 0.0069; to GCTGTATTTA, 0.974 ± 0.024.

For the sequence AGGGCTAATA, the switch fluorescence ratio was found to be 1.009 ± 0.0081. Turning to TATAAGGTCC, the switch fluorescence ratio is 0.98 ± 0.019.

Turning to TGGCTCATAC, the switch fluorescence ratio is 1.45 ± 0.041. For GGTTAAGTGC the value was 1.01 ± 0.029. On to ACAGCGGGGT, for which the switch fluorescence ratio stood at 1 ± 0.021. To GGGAAGAGTA belongs 1 ± 0.031; to TTCCGGCTTT, 1.01 ± 0.033. For the sequence TTGAGGTCTT, the switch fluorescence ratio is 0.964 ± 0.024. To CGGGGAAGTC belongs 1.02 ± 0.044; to TTTGGGTCAA, 1.012 ± 0.0074; to TTTTCTCTTT, 1.01 ± 0.035. As to TTGGGCGGTG, the switch fluorescence ratio is 1.01 ± 0.018. To AAAATGACGT belongs 1.04 ± 0.049. As for ATTCCGGGAG, the switch fluorescence ratio was 1.07 ± 0.064.

Turning to TTGCTCGAAA, the switch fluorescence ratio was 0.987 ± 0.075. For TTTAGTTGAG the value was 0.971 ± 0.025; for CATTACCGGA, 1.012 ± 0.0098. To TGGAGGGCTC belongs 1.01 ± 0.025; to TGAACGTCCA, 1.09 ± 0.015; to TTTTAAACTG, 1.1 ± 0.066. AGGGACAAGG: the switch fluorescence ratio is 1.014 ± 0.0095. To GTTTTCGCGA belongs 1.06 ± 0.04; to TCTGGGTGCC, 1.02 ± 0.055. To AATGTGCCTT belongs 1.056 ± 0.0057; to TTGCGTTAGG, 1.04 ± 0.012; to AGGGGGTTT, 1.02 ± 0.024.

Turning to TAGCTGCAAA, the switch fluorescence ratio came to 1.05 ± 0.024.

With GGACTAGGAA, the switch fluorescence ratio was 1.01 ± 0.026. To AAGTGGCTGG belongs 0.991 ± 0.038; to GGGAAGGCGT, 1.12 ± 0.14. For GTTGCATTAT the value was 1.028 ± 0.0041. For ATGTAGACGG the value was 0.984 ± 0.011. With CGTTATCGTG, the switch fluorescence ratio came out at 0.9826 ± 0.0061. For CGAAGGATTG the value was 0.992 ± 0.015; for AGTGCGGGCG, 0.9895 ± 0.003; for TTTACTATGG, 0.9984 ± 0.0023. On to GTGGAAGCTT, for which the switch fluorescence ratio stood at 1.01 ± 0.041. With GGGTAAAGCT, the switch fluorescence ratio worked out at 1.14 ± 0.018.

Regarding CTGAGCGGCT, the switch fluorescence ratio was found to be 1.05 ± 0.051. For GGTTATGGCC the value was 1.01 ± 0.031; for TTTTTATGGA, 1.03 ± 0.027. To TTGTGGCCAT belongs 0.974 ± 0.022; to TGGGGACAAA, 0.986 ± 0.019.

Consider CGCGGGATGT, for which the switch fluorescence ratio is 1.02 ± 0.045. For ATCGGATTTC the value was 1.02 ± 0.047; for GGGTTGACGG, 0.986 ± 0.057.

For the sequence AGTTTCGCGG, the switch fluorescence ratio amounted to 0.9632 ± 0.0037. Consider TGAGTATTTT, for which the switch fluorescence ratio stood at 0.992 ± 0.025. With TTTGTGCGCA, the switch fluorescence ratio was 1.07 ± 0.08. For GAAAAATCGA the value was 0.9882 ± 0.0056. For ACATTTTGCG the value was 0.99926 ± 0.00068; for AAGAGTTGCC, 1.07 ± 0.12; for TTTGGAAAGG, 0.977 ± 0.046. For ATATATGGAG the value was 1.011 ± 0.00029; for CAGATGGGGT, 0.9839 ± 0.001. For CGTGACCTTT, the switch fluorescence ratio was 1.02 ± 0.048. To TATATAGGGA belongs 0.981 ± 0.026. To AGGGGGTTCT belongs 1.017 ± 0.0056; to AGTTGTTATT, 1.027 ± 0.0088. As to GCCATAATTA, the switch fluorescence ratio worked out at 0.981 ± 0.018. GGGTCTGCGC: the switch fluorescence ratio stood at 1.03 ± 0.024. To GTATGGGGGG belongs 0.985 ± 0.026; to GCGATTTATG, 0.9723 ± 0.0051. To ATTTATGTGC belongs 1.01 ± 0.025; to CGTGCTGTA, 1.046 ± 0.0054; to GTTTTCGGGT, 1.01 ± 0.052. To AACACCTCTC belongs 1.1 ± 0.07; to AGGGAAGGAC, 1.03 ± 0.029; to GTAATATTTC, 0.992 ± 0.027. Take AATCTTGGGC: the switch fluorescence ratio amounted to 0.9771 ± 0.0096.

For CATCATGTAC, the switch fluorescence ratio was determined as 1.33 ± 0.059. For the sequence CCTGGTACGT, the switch fluorescence ratio was found to be 1.01 ± 0.034. In the case of GTGTAAATCT, the switch fluorescence ratio was 1.036 ± 0.0046. On to AGTAGCGGTC, for which the switch fluorescence ratio was found to be 1.02 ± 0.057. To GTATTTTTAG belongs 0.993 ± 0.033; to TTTTTAGTTG, 1.12 ± 0.41.

CACTTGGTCG: the switch fluorescence ratio was found to be 1 ± 0.068. With GGAGTTGGGA, the switch fluorescence ratio was 1.021 ± 0.0066. For the sequence ATTTGGTCGT, the switch fluorescence ratio is 0.979 ± 0.048.

Consider GTTTTAAAGG, for which the switch fluorescence ratio stood at 0.984 ± 0.031. To TGCAAATTGG belongs 0.992 ± 0.011; to CACGACATTG, 1.02 ± 0.018.

In the case of AAGTGGTCTG, the switch fluorescence ratio was found to be 0.983 ± 0.017. For TCATTTCGGC, the switch fluorescence ratio was 0.982 ± 0.032.

As to GGTCCGGGGG, the switch fluorescence ratio worked out at 1.02 ± 0.025.

For the sequence GGTTGGCCGT, the switch fluorescence ratio amounted to 1.03 ± 0.051. GACAGTCGGC: the switch fluorescence ratio was 0.9669 ± 0.0067. For ATTTTTTAAA the value was 0.994 ± 0.027; for TTCTCGGACG, 0.991 ± 0.017.

As to GGGGTTGAGT, the switch fluorescence ratio was found to be 1.001 ± 0.005.

In the case of GGCTTAATAG, the switch fluorescence ratio was 1.01 ± 0.033. For CCCATTGTTT the value was 1.01 ± 0.022; for GGGAGCCCCA, 1.04 ± 0.039; for TGGCATAGGT, 1.02 ± 0.03.
